Laboratory results: patent publication US12552866B2, “Internalizing binding molecules targeting receptors involved in cell proliferation or in cell differentiation” (LinXis B.V., priority 2019, dated 2026)
“Also recorded” adds a separate entry of the source.

Key:
hIGF2R-ECD [1] = biological target: T1, hIGF2R-ECD (Homo sapiens, UniProt P11717); assay: Competition ELISA with 13F11-A647 on immobilized hIGF2R-ECD; assay type: binding; conditions: for competition with 13F11 for binding to hIGF2R-ECD: 10 nM 13F11-A647, 250 nM unconjugated competitor
T1 construct: recombinant human extracellular domain of IGF2R (hIGF2R-ECD)
Description: With the term “compete” is meant that in a competition assay, such as for instance described in Example 5 and Example 8 of the present invention, the addition of a binding molecule induces a significant decrease in binding of a given VHH, i.e., the VHH to which the competing is determined. “Significant” in this respect is preferably a decrease of >5%, preferably >10% when 250 nM of a binding molecule is added to 10 nM of a fluorescence labelled VHH in an ELISA. […] The same test conditions and threshold apply to a binding molecule directed to PDGFRB when determining whether a binding molecule competes with a given VHH.
From the panel of 15 hIGF2R specific binders (FIG. 2), VHHs 13A8, 13A12, 13C11, 13E8, 13F11 and 13G10 were chosen for further characterization. A competition assay was performed to determine if the selected VHHs recognize distinct epitopes on hIGF2R. For this, a non-saturating amount (10 nM) of 13F11 conjugated to Alexa Fluor 647 (13F11-A647, conjugation method as described in example 9.2) was incubated with immobilized hIGF2R-ECD in the presence of unconjugated competitor (250 nM) (FIG. 10). Incubation of hIGF2R-ECD with 13F11-A647+13F11 was used as a positive control and incubation of hIGF2R-ECD with only 13F11-A647 was used to define the maximal fluorescence intensity.

[2] = In vivo pharmacokinetics in healthy Sprague-Dawley rats (serum ELISA); set-up: species or system rat
Description: The in vivo pharmacokinetic properties of 13F11-13E8-ABD was compared to 13F11-13E8 without the ABD moiety in healthy Sprague-Dawley rats. In brief, rats were dosed intravenously with approximately 3 mg/kg body weight and blood samples were taken at different time points and the concentration of the VHH constructs were determined using an ELISA on immobilized hIGF2R-ECD.

IGF2R = biological target: T2, IGF2R (Rattus norvegicus, UniProt G3V824); assay: Immunofluorescence staining of tissue cryo-sections of BDL and SHAM rats
T2 construct: from tissue; host or cells: cryo-sections of liver and other tissues, and liver in vivo, of Sprague-Dawley BDL and SHAM rats
Description: After cryo-sectioning, the tissue sections were stained with 50 nM fluorescent 13F11-13E8-ABD-AF647 and incubated overnight at 4° C. Subsequently, the sections were washed and stained with DAPI and mounted with mowiol mounting medium (Merck) and were imaged on a Zeiss LSM700 laser scanning confocal microscope with a 20× objective.

hIGF2R-ECD [3] = biological target: T1, hIGF2R-ECD; assay: Binding assay / titration ELISA on recombinant hIGF2R-ECD; conditions: construct conjugated to Alexa Fluor 647, direct read out; KD+SEM, n=2; read-out: calculated affinity (KD)
Description: The 15 unique hIGF2R binders (Example 1.1, FIG. 2) were produced and purified as described in examples 2 and 3. The apparent affinities were determined with binding assays on hIGF2R-ECD. Briefly, three-fold serial VHH dilutions, starting from 1 μM, were added onto hIGF2R-ECD coated plates. After 2 hours of incubation, plates were washed and bound VHH was detected using a VHH-specific IgG antibody, followed by an IRD800CW-conjugated IgG-specific antibody. […] VHH 13F11 was also produced with a C-terminal free cysteine and conjugated using maleimide chemistry to Alexa Fluor 647 (13F11-A647 in FIG. 8A, conjugation method as described in example 9.2). A titration ELISA (direct read out at 647 nm) with this construct was carried out on hIGF2R-ECD to determine whether the affinity was affected after site directed conjugation (FIG. 8B). The KD and Bmax were calculated in Graphpad (version 8.3), using one-site specific binding analysis (FIG. 8C).
Based on their high affinity and binding to non-overlapping receptor epitopes, VHHs 13F11 and 13E8 were selected for the design of biparatopic and bivalent VHH constructs. Two VHHs were fused with a flexible linker, consisting of three Gly-Gly-Gly-Gly-Ser repeats (FIG. 8A). The sequences were codon optimized for expression in E. coli and obtained as synthesized DNA fragments from GeneArt. The DNA fragments encoding VHHs were cloned into a vector pET28-based vector introducing a C-terminal free cysteine for site-directed conjugation and His6 tag for IMAC purification (FIG. 8A). The constructs were produced and purified as described in example 3. The constructs were conjugated to Alexa Fluor 647 (conjugation method as described in example 9.2) and titration ELISAs on recombinant hIGF2R-ECD (as described in example 4.1) were performed to determine the KD and Bmax (calculated in Graphpad (version 8.3), using one-site specific binding analysis) (FIG. 8C).
Next, 13F11-13E8 was genetically re-engineered to include an in vivo half-life extender in the form of an albumin binding domain (ABD) as described by Johansson et al (Structure, specificity, and mode of interaction for bacterial albumin-binding modules, J. Biol. Chem. 2002 (277): 8114-8120) and subsequently produced and purified as described in Example 3. Subsequently, 13F11-13E8-ABD was conjugated to IRDye800CW (F11E8-ABD-IRD800, conjugation method as described in example 9.2) and the binding affinities of the biparatopic VHH as well as the ABD unit was determined. […] The binding affinity (KD) of F11-E8-ABD-IRD800 to rat serum albumin (RSA) was 30 nM and to mouse serum albumin (MSA) and human serum albumin (HSA) the binding affinity was approximately 200 nM.

T2 sequence (G3V824 36-2481): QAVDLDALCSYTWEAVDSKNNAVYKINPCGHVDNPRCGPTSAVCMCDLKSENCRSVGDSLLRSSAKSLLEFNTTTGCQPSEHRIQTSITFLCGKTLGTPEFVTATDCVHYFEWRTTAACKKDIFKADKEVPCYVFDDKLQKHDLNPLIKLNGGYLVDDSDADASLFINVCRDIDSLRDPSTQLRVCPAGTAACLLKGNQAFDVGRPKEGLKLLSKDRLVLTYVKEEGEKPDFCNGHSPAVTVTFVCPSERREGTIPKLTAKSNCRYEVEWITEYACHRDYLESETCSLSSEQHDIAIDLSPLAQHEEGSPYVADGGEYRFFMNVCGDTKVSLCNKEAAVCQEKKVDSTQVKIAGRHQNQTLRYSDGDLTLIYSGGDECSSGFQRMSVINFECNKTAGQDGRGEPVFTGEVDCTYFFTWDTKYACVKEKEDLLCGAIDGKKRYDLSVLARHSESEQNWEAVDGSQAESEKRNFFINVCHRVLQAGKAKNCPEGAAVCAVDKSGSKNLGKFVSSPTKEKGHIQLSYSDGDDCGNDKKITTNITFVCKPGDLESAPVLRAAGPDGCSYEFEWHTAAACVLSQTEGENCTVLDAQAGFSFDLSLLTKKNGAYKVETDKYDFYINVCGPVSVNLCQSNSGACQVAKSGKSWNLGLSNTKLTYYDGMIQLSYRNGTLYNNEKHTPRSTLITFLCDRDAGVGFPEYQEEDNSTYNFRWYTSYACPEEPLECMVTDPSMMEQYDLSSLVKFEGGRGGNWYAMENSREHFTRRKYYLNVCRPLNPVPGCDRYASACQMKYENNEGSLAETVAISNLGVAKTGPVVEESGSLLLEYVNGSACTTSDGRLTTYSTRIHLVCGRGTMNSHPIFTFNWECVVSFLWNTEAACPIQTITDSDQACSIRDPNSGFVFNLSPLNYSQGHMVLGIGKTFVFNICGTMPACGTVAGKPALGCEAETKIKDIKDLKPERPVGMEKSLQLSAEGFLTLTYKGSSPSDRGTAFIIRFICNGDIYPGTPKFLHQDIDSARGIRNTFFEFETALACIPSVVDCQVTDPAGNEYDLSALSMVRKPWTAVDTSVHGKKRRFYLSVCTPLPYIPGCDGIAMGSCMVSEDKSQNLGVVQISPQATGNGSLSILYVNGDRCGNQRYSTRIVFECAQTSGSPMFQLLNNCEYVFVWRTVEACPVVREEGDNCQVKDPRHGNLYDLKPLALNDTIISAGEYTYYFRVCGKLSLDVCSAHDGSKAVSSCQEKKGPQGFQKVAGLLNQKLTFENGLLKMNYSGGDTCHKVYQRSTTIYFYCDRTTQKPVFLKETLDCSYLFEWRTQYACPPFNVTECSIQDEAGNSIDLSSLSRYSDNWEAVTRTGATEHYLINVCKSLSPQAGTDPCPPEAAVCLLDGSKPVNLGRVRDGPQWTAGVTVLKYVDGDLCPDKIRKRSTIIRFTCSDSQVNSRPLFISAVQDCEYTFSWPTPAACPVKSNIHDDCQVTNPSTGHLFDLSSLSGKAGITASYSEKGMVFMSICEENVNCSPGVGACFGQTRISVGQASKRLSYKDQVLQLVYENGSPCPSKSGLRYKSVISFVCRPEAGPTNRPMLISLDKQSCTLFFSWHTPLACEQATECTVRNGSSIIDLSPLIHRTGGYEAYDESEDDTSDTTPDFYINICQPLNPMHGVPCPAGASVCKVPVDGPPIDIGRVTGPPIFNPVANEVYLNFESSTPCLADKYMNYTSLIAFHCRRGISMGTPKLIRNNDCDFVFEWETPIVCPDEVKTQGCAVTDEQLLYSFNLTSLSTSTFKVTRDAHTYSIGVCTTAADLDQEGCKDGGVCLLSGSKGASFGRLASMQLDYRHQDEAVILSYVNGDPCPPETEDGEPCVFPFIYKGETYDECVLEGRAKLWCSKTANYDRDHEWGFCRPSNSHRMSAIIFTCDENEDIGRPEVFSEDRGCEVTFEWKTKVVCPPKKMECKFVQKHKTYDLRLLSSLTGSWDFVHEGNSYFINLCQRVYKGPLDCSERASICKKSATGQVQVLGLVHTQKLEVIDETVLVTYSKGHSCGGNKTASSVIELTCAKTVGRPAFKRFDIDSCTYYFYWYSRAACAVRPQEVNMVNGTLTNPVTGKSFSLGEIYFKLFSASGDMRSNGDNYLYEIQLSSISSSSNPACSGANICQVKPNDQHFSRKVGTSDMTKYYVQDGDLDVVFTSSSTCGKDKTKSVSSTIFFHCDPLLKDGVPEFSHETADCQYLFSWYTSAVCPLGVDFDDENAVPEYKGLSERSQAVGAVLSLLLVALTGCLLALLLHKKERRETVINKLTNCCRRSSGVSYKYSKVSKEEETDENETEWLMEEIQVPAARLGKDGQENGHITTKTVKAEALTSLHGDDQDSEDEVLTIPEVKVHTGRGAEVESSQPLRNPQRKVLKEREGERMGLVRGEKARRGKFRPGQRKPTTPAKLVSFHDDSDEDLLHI

B1: 13A12: VHH targeting IGF2R, SEQ ID NO: 289 (protein, listed as Lama glama)
VHH: EVQLVESGGGLVQAGGSLRLSCAASGIIFGANTVGWYRQVPGKERDVVASITSGDSTYYGDSVRGRFTISRDNAKNTMYLQMNSLKPEDTAIYYCRARTTDGSYWGQGTQVTVS
With B1 the “competition with 13F11 for binding to hIGF2R-ECD” value (“competition with 13F11” for short) (hIGF2R-ECD [1]) was “compete”.

B2: 13A8: VHH targeting IGF2R, SEQ ID NO: 257 (protein, listed as Lama glama)
VHH: EVQLVESGGGLVPAGGSLRLSCAASGRTFSNYAMGWFRQAPGKERKFVATISWSGGVTYYADSVKGRFTISRDNAKNTVYLLMNSLKPEDTAVYYCAAKRDSSSYDHRRYDYWGQGTQVTVSS
In the case of B2, the “competition with 13F11” value (hIGF2R-ECD [1]) is reported as “complete competition; also recorded: compete”.

B3: 13F11-13E8-ABD: 13F11-13E8 re-engineered to include an albumin binding domain (ABD) as half-life extender (protein)
chain: EVQLVESGGRLVQPGDSLRLSCAASGRTFSDNAMGWFRQAPGKERRFVAGISWAGGSTYYSDSVKGRFTISRDNAKNTVYLQMNSLKPEDTAVYYCAAGLRAWVQRMPKDYNYWGQGTQVTVSSGGGGSGGGGSGGGGSEVQLVESGGGLVQAGGSLRLSCAASRSISPMGWYRQAPGKQRELVAIMPSSGPPIYADSVQGRFTISRDNAKNTVYLQMNSLKPEDTAVYYCNVGGGYWGQGTQVTVSS
modifications: left off: large carriers; small tags and cut ends
For B3, the “fraction of the infused dose still in circulation” value ([2]; one hour after dosing, estimated serum volume 10 mL) was “approximately 50%” and the Cmax ([2]; rat, i.v., approximately 3 mg/kg, read-out: peak serum level (Cmax)) was greater than 1000 nM.

B4: 13F11-13E8-ABD-AF647: 13F11-13E8-ABD conjugated to Alexa Fluor 647 (conjugate)
chain: EVQLVESGGRLVQPGDSLRLSCAASGRTFSDNAMGWFRQAPGKERRFVAGISWAGGSTYYSDSVKGRFTISRDNAKNTVYLQMNSLKPEDTAVYYCAAGLRAWVQRMPKDYNYWGQGTQVTVSSGGGGSGGGGSGGGGSEVQLVESGGGLVQAGGSLRLSCAASRSISPMGWYRQAPGKQRELVAIMPSSGPPIYADSVQGRFTISRDNAKNTVYLQMNSLKPEDTAVYYCNVGGGYWGQGTQVTVSS
modifications: left off: large carriers; small tags and cut ends
In the case of B4, the “binding to cells in liver sections of BDL rats” value (IGF2R; 50 nM, overnight at 4° C.) is reported as “clearly binds to cells in a liver from BDL rats”, the “binding to cells in liver sections of SHAM rats” value (IGF2R; 50 nM, overnight at 4° C.) is reported as “not to cells in a liver from SHAM rats” and the “staining of other tissues (kidney, spleen, heart, ileum, brain)” value (IGF2R; BDL and SHAM rats) is reported as “no, or minor staining”.

B5: 13C11: VHH targeting IGF2R, SEQ ID NO: 297 (protein, listed as Lama glama)
VHH: EVQLVESGGGLVQAGGSLRLSCAASGLTFSSYTMAWYRQAPGKEREVVAAISSGDSIYHEGSVQGRFIISRDNAKNTVYLQMNSLKAEDTAVYYCRANGPGTYWGQGTQVTVSS
With B5 the “competition with 13F11” value (hIGF2R-ECD [1]) was “compete”.

B6: 13G10: VHH targeting IGF2R, SEQ ID NO: 305 (protein, listed as Lama glama)
VHH: EVQLVESGGGLVQAGGSLRLSCAASGLTFSSYTMAWYRQAPGKEREVVAAISSGDSIYHEDSVQGRFIISRDNAKNTVYLQMNSLKAEDTAVYYCRANGPGTYWGQGTQVTVSS
In the case of B6, the “competition with 13F11” value (hIGF2R-ECD [1]) is reported as “compete”.

B7: 13F11-A647: VHH 13F11 with C-terminal free cysteine conjugated using maleimide chemistry to Alexa Fluor 647 (conjugate)
VHH: EVQLVESGGRLVQPGDSLRLSCAASGRTFSDNAMGWFRQAPGKERRFVAGISWAGGSTYYSDSVKGRFTISRDNAKNTVYLQMNSLKPEDTAVYYCAAGLRAWVQRMPKDYNYWGQGTQVTVSS
B7 gave a Kd (hIGF2R-ECD [3]) of 1 ± 0.61 nM.

B8: 13E8: VHH targeting IGF2R, SEQ ID NO: 249 (protein, listed as Lama glama)
VHH: EVQLVESGGGLVQAGGSLRLSCAASRSISPMGWYRQAPGKQRELVAIMPSSGPPIYADSVQGRFTISRDNAKNTVYLQMNSLKPEDTAVYYCNVGGGYWGQGTQVTVSS
In the case of B8, the “competition with 13F11” value (hIGF2R-ECD [1]) is reported as “did not compete; also recorded: do not compete” and the “decrease in fluorescence intensity of labelled 13F11” value (hIGF2R-ECD [1]; 10 nM labelled 13F11, 250 nM unlabelled competitor) is reported as “less than 5%”.
